Assay results as given in publication PMC10877310 (Current biology : CB, 2023).

What was measured:
[1] = target: microtubules polymerised from porcine brain tubulin (porcine), P02550; assay: co-sedimentation
[2] = target: porcine brain tubulin dimers (porcine, UniProt P02550 1-451; Q767L7 1-444); assay: BLI

Chain of microtubules polymerised from porcine brain tubulin (porcine), P02550 (P02550 whole entry, chain 1 of 2): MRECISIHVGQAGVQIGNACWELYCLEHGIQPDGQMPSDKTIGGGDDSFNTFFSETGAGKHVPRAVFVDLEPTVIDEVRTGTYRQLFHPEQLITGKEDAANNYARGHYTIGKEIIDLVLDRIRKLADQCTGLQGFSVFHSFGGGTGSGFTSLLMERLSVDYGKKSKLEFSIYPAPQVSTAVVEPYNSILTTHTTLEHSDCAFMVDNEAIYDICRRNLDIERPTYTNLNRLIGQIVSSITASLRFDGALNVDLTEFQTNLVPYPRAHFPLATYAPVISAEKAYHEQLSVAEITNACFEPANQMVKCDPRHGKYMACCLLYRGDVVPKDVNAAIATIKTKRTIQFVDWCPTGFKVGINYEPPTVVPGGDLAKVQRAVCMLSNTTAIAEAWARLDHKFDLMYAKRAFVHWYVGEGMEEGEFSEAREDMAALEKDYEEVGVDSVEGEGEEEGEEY
Chain of microtubules polymerised from porcine brain tubulin (porcine), P02550 (P02554 whole entry, chain 2 of 2, further chain): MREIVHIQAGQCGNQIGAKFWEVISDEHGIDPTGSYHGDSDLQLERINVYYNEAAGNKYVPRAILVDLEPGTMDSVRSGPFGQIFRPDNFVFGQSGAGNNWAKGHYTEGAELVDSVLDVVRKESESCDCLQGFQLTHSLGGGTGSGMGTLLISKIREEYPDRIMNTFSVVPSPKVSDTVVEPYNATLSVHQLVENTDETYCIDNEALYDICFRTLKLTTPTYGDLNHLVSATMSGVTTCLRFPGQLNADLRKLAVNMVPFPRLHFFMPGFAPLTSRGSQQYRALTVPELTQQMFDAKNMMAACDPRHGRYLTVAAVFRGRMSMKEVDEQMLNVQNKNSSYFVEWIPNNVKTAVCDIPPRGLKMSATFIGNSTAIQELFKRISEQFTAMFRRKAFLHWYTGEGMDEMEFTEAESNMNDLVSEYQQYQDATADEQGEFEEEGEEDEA

B1: Abl2-eGFP, Q4JIM5 74-1182 (natural protein)
chain: EVLHRPFGCDAESQALNEAIRWSSKENLLGATESDPNLFVALYDFVASGDNTLSITKGEKLRVLGYNQNGEWSEVRSKNGQGWVPSNYITPVNSLEKHSWYHGPVSRSAAEYLLSSLINGSFLVRESESSPGQLSISLRYEGRVYHYRINTTTDSKVYVTAESRFSTLAELVHHHSTVADGLVTTLHYPAPKCNKPTVYGVSPIHDKWEMERTDITMKHKLGGGQYGEVYVGVWKKYSLTVAVKTFKEDTMEVEEFLKEAAVMKEIKHPNLVQLLGVCTLEPPFYIVTEYMPYGNLLDYLRECSREEVTAVVLLYMATQISSAMEYLEKKNFIHRDLAARNCLVGENHVVKVADFGLSRLMTGDTYTAHAGAKFPIKWTAPESLAYNTFSIKSDVWAFGVLLWEIATYGMSPYPGIDLSQVYDLLEKGYRMEQPEGCPPKVYELMRACWKWSPADRPSFAETHQAFETMFHDSSISEEVAEELGRTASSSSVVPYLPRLPLLPSKTRTLRKQGENKENLDGGLDAAESLASSSAPAGFIRSTQASSGSPALPRKQRDKSPSSLLEDAKETCFTRDRKGGFFSSFMKKRNAPTPPKRSSSFREMENQPHKKYELTGNFSPVASLQNADGFSVAPSQQEPNLVPAKCYGGSFAQRNLCADDDSGGGGGSGTAGGGWSGITGFFTPRLIKKTLGLRAGKPTASDDTSKPFPRSNSTSSMSSGLPEQDRMAMTLPRNCQRSKLQLERTVSTSSQPEENVDRANDMLPKKSEEGAAPARERPKAKLLPRGATALPLRAPDPAITESDSPGVGVAGVAAAPKGKERNGGTRLGVAGVPEDGEQLGWSSPAKAVAVLPTTHNHKVPVLISPTLKHTPADVQLIGTDSQGNKFKLLSEHQVTSSGDKDRPRRVKPKCAPPPPPVMRLLQHPSTCSDPEEEPTAPPAGQHTPETQEGGKKAAPGPVPSSGKPGRPVMPPPQVPLPTSSISPAKMANGTAGTKVALRKTKQAAEKISADKISKEALLECADLLSSAITEPVPNSQLVDTGHQLLDYCSGYVDSIPQTRNKFAFREAVSKLELSLQELQVSSTAAGVPGTNPVLNNLLSCVQEISDVVQR
B1 was tested, and the Kd [1] was 320 nM.

B2: Abl2Δ688-790-eGFP, Q4JIM5 74-1182 (natural protein)
chain: EVLHRPFGCDAESQALNEAIRWSSKENLLGATESDPNLFVALYDFVASGDNTLSITKGEKLRVLGYNQNGEWSEVRSKNGQGWVPSNYITPVNSLEKHSWYHGPVSRSAAEYLLSSLINGSFLVRESESSPGQLSISLRYEGRVYHYRINTTTDSKVYVTAESRFSTLAELVHHHSTVADGLVTTLHYPAPKCNKPTVYGVSPIHDKWEMERTDITMKHKLGGGQYGEVYVGVWKKYSLTVAVKTFKEDTMEVEEFLKEAAVMKEIKHPNLVQLLGVCTLEPPFYIVTEYMPYGNLLDYLRECSREEVTAVVLLYMATQISSAMEYLEKKNFIHRDLAARNCLVGENHVVKVADFGLSRLMTGDTYTAHAGAKFPIKWTAPESLAYNTFSIKSDVWAFGVLLWEIATYGMSPYPGIDLSQVYDLLEKGYRMEQPEGCPPKVYELMRACWKWSPADRPSFAETHQAFETMFHDSSISEEVAEELGRTASSSSVVPYLPRLPLLPSKTRTLRKQGENKENLDGGLDAAESLASSSAPAGFIRSTQASSGSPALPRKQRDKSPSSLLEDAKETCFTRDRKGGFFSSFMKKRNAPTPPKRSSSFREMENQPHKKYELTSGLPEQDRMAMTLPRNCQRSKLQLERTVSTSSQPEENVDRANDMLPKKSEEGAAPARERPKAKLLPRGATALPLRAPDPAITESDSPGVGVAGVAAAPKGKERNGGTRLGVAGVPEDGEQLGWSSPAKAVAVLPTTHNHKVPVLISPTLKHTPADVQLIGTDSQGNKFKLLSEHQVTSSGDKDRPRRVKPKCAPPPPPVMRLLQHPSTCSDPEEEPTAPPAGQHTPETQEGGKKAAPGPVPSSGKPGRPVMPPPQVPLPTSSISPAKMANGTAGTKVALRKTKQAAEKISADKISKEALLECADLLSSAITEPVPNSQLVDTGHQLLDYCSGYVDSIPQTRNKFAFREAVSKLELSLQELQVSSTAAGVPGTNPVLNNLLSCVQEISDVVQR
B2 was tested, and the Kd [1] was 400 nM.

B3: 6XHis-557-C (Abl2-557-1182, C-terminal half) (domain or fragment, murine, UniProt Q4JIM5 557-1182, looked up)
chain: GRTASSSSVVPYLPRLPLLPSKTRTLRKQGENKENLDGGLDAAESLASSSAPAGFIRSTQASSGSPALPRKQRDKSPSSLLEDAKETCFTRDRKGGFFSSFMKKRNAPTPPKRSSSFREMENQPHKKYELTGNFSPVASLQNADGFSVAPSQQEPNLVPAKCYGGSFAQRNLCADDDSGGGGGSGTAGGGWSGITGFFTPRLIKKTLGLRAGKPTASDDTSKPFPRSNSTSSMSSGLPEQDRMAMTLPRNCQRSKLQLERTVSTSSQPEENVDRANDMLPKKSEEGAAPARERPKAKLLPRGATALPLRAPDPAITESDSPGVGVAGVAAAPKGKERNGGTRLGVAGVPEDGEQLGWSSPAKAVAVLPTTHNHKVPVLISPTLKHTPADVQLIGTDSQGNKFKLLSEHQVTSSGDKDRPRRVKPKCAPPPPPVMRLLQHPSTCSDPEEEPTAPPAGQHTPETQEGGKKAAPGPVPSSGKPGRPVMPPPQVPLPTSSISPAKMANGTAGTKVALRKTKQAAEKISADKISKEALLECADLLSSAITEPVPNSQLVDTGHQLLDYCSGYVDSIPQTRNKFAFREAVSKLELSLQELQVSSTAAGVPGTNPVLNNLLSCVQEISDVVQR
B3 gave a Kd [2] of 17 ± 8 nM.

B4: 6XHis-688-924 (Abl2-688-924, site I) (domain or fragment, murine, UniProt Q4JIM5 688-924, looked up)
chain: GNFSPVASLQNADGFSVAPSQQEPNLVPAKCYGGSFAQRNLCADDDSGGGGGSGTAGGGWSGITGFFTPRLIKKTLGLRAGKPTASDDTSKPFPRSNSTSSMSSGLPEQDRMAMTLPRNCQRSKLQLERTVSTSSQPEENVDRANDMLPKKSEEGAAPARERPKAKLLPRGATALPLRAPDPAITESDSPGVGVAGVAAAPKGKERNGGTRLGVAGVPEDGEQLGWSSPAKAVAVLP
B4 gave a Kd [2] of 118 ± 39 nM.

B5: 6XHis-1024-1090 (Abl2-1024-1090, site II) (domain or fragment, murine, UniProt Q4JIM5 1024-1090, looked up)
chain: KAAPGPVPSSGKPGRPVMPPPQVPLPTSSISPAKMANGTAGTKVALRKTKQAAEKISADKISKEALL
In the case of B5, the Kd [2] is reported as 252 ± 123 nM.
